According to PMC3215702, “The Nuclear Pore Complex Mediates Binding of the Mig1 Repressor to Target Promoters” (PLoS ONE, 2011):
Each block holds one molecule with its values, some of them ahead of it.

Tests used:
[1] = molecular target: nuclear pore complex of nup120Δ cells (S. cerevisiae (endogenous)) (UniProt P52891); assay: co-fractionation with isolated NPCs (QFPD, quantitative fluorescent protein detection); glucose-grown (repressing) cells; nuclei isolated on sucrose/PVP-40 gradients, lysed with DNase I, NPC fraction floated on sucrose/Nycodenz gradient; GFP fluorescence of the fractions read on a Typhoon imager; values relative to wild type; also done in gcr1Δ and gcr1Δ nup84Δ strains
Chain of nuclear pore complex of nup120Δ cells (S. cerevisiae (endogenous)) (P52891 whole entry, looked up, stated change not applied, one chain of several): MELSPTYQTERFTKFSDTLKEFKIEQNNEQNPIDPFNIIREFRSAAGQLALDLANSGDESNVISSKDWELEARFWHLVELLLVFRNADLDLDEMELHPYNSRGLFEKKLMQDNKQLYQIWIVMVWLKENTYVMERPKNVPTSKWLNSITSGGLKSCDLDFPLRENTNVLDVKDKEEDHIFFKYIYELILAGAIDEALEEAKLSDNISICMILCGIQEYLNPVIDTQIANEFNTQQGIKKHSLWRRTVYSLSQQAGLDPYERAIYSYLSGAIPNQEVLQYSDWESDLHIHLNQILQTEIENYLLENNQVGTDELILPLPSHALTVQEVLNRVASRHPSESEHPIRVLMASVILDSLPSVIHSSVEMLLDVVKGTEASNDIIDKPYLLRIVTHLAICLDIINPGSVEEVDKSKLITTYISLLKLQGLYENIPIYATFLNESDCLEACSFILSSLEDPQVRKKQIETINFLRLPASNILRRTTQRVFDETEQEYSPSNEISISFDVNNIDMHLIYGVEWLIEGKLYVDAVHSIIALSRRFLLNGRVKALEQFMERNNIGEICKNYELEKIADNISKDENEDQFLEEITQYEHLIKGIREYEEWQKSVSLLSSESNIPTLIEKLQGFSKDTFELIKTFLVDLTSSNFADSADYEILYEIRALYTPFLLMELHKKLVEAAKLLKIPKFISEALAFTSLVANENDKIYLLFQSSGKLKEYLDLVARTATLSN

[2] = molecular target: nuclear pore complex of nup133Δ cells (S. cerevisiae (endogenous)) (UniProt P52891); assay: as above
Chain of nuclear pore complex of nup133Δ cells (S. cerevisiae (endogenous)) (P52891 whole entry, looked up, stated change not applied, one chain of several): as above

[3] = molecular target: nuclear pore complex of nup84Δ cells (S. cerevisiae (endogenous)) (UniProt P35729); assay: as above
Chain of nuclear pore complex of nup84Δ cells (S. cerevisiae (endogenous)) (P35729 whole entry, looked up, stated change not applied, the tested form may be a part, one chain of several): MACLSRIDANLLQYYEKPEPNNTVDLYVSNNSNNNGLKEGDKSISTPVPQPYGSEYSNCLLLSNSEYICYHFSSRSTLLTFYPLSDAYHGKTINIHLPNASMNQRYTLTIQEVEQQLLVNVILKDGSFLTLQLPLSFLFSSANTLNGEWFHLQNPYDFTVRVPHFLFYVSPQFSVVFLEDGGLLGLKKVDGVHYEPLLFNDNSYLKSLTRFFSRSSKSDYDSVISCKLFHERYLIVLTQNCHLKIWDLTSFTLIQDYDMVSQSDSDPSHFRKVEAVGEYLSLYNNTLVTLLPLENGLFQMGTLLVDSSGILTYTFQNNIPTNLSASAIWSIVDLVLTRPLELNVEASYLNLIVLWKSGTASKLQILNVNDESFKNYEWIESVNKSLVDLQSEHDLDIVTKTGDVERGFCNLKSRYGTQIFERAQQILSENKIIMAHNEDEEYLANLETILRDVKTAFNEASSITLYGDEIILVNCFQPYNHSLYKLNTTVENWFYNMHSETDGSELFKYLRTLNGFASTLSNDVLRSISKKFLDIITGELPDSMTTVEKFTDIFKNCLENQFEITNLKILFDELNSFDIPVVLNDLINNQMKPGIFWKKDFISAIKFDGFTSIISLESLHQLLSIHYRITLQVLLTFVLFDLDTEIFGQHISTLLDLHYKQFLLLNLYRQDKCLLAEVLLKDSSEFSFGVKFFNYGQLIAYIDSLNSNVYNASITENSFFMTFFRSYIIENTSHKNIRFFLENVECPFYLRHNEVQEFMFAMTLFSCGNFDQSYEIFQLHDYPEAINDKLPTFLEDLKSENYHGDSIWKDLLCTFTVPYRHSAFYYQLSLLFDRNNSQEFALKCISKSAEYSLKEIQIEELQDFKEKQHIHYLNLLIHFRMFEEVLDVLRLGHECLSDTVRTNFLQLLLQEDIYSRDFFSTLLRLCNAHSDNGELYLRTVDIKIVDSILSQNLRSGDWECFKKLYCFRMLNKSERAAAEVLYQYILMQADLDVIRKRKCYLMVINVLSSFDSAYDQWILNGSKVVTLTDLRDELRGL

[4] = molecular target: T1, Mig1-GFP fusion protein (S. cerevisiae, UniProt P27705 1-504); assay: co-IP; anti-GFP antibody added to crude lysate of glucose-grown cells, protein A sepharose; eluate blotted and probed with anti-lexA antibody (anti-GFP as control); conditions: partners not purified
T1 construct: Mig1, glucose-regulated repressor of S. cerevisiae; GFP tag integrated at the MIG1 locus; Called a fully functional fusion; also called GFP-tagged Mig1; source: S. cerevisiae, Mig1-GFP strain from the Yeast GFP Clone collection (Invitrogen), integrated GFP tag; in crude lysate or cell fractions
T1 sequence (P27705 whole entry, the tested form may be a part): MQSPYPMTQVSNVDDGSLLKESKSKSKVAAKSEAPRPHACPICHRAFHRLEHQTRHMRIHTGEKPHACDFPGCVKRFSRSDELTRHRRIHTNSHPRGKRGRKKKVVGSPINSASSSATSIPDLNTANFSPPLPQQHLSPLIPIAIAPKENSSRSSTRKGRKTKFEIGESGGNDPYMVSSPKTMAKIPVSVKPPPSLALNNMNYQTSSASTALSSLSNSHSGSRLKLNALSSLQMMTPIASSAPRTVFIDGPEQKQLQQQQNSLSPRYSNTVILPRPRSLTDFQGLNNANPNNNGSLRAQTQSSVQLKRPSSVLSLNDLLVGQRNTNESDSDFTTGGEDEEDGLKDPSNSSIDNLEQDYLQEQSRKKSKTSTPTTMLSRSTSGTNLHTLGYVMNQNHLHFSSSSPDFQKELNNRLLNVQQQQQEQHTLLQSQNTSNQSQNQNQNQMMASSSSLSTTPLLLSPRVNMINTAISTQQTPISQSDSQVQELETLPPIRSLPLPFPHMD

perinuclear Mig1 relative to wild type (relative to wild type (1.00)) [1]: 0.43 | perinuclear Mig1 relative to wild type (relative to wild type (1.00)) [2]: 0.03 | perinuclear Mig1 relative to wild type (relative to wild type (1.00)) [3]: 1.3
Molecule: Mig1-GFP fusion protein (from UniProt P27705 1-504) (natural protein)

fold reduction in co-immunoprecipitation relative to Nup84-lexA [4]: > 2 fold
B1: Nup53-lexA (natural protein, S. cerevisiae, UniProt Q03790 1-475, looked up)
chain: MADLQKQENSSRFTNVSVIAPESQGQHEQQKQQEQLEQQKQPTGLLKGLNGFPSAPQPLFMEDPPSTVSGELNDNPAWFNNPRKRAIPNSIIKRSNGQSLSPVRSDSADVPAFSNSNGFNNVTFGSKKDPRILKNVSPNDNNSANNNAHSSDLGTVVFDSNEAPPKTSLADWQKEDGIFSSKTDNIEDPNLSSNITFDGKPTATPSPFRPLEKTSRILNFFDKNTKTTPNTASSEASAGSKEGASTNWDDHAIIIFGYPETIANSIILHFANFGEILEDFRVIKDFKKLNSKNMSKSPSLTAQKYPIYTGDGWVKLTYKSELSKSRALQENGIIMNGTLIGCVSYSPAALKQLASLKKSEEIINNKTSSQTSLSSKDLSNYRKTEGIFEKAKAKAVTSKVRNAEFKVSKNSTSFKNPRRLEIKDGRSLFLRNRGKIHSGVLSSIESDLKKREQASKSKKSWLNRLNNWLFGWNDL
notes: Nup53, nucleoporin, S. cerevisiae; source: S. cerevisiae Mig1-GFP strain, in crude lysate
